Experimental findings from the nanobody polyreactivity screen of Harvey et al. (2022) are described below.

The series is described as follows: yeast display, Sf9 membrane polyspecificity reagent, FACS + sequencing; frameworks hold sequencing errors. The procedure, abridged:
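Genes from sorted yeast were amplified by colony PCR, read by MiSeq 2 × 250 sequencing and filtered on CDR length. These cells carried a synthetic nanobody library in Saccharomyces cerevisiae BJ5465 and were sorted by FACS into low and high (top ~1%) gates on anti-HA and streptavidin fluorescence. Polyreactivity is labelled according to the gate of origin.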
As for “QVQLVESGGGLVQAGGSLRLSCDASGITQTVYAMGWYRQSPGKERELVAGIDWVGDTYADSVKGRFTISRDNAKNTVYLQMNSLKPEDTAVYYCAADNYSQGVPYDYWGQGSQVTVSS”, the “polyreactivity (PSR sort gate)” value is listed as “low polyreactivity”.
With “QVQLVESGGGLVQAGGSLRLSCDASGLIFITYAMRWYRQAPGKERELVATITLRGGSTYYADSVKGRFTISRDNAKNTVYLQMNSLKPEDTAVYYCAAEVGYWGRSRGYPSDDYDYCGQGTQVTVSS”, the “polyreactivity (PSR sort gate)” value is given as “low polyreactivity”.
To “QVQLVESGGGLVQAGGSLRLSCDASGLTFPYYTMGWYRQAPGKERELVADINGSGGSTYYADSVKGRFTISLDNAKNTFYLQMNSLKPEDTEVYYCAAGSWQVAISYDYWGQGTQVTVSS” belongs “low polyreactivity”.
To “QVQLVESGGGLVQAGGSLRLSCDASGNILPSNAMGWYRQAPGKERELVAAITWSVGRTYYADSVKGRFTISRDNAKNTVYLQMNSLKPEDTAVYYCNAQDTPYEGRYDESEYDYWGQGTQVTVSS” belongs “low polyreactivity”; to “QVQLVESGGGLVQAGGSLRLSCDASGNTFSRYAMGWYRQAHGKERELVAAITSSGGSTYYADSVKGRFTISRDNAKNTVYLQMNSLKPEDTAVYYCAATSYYTREHYYYWGQGTQVTVSS”, “high polyreactivity”.
For “QVQLVESGGGLVQAGGSLRLSCDASGNTFVRYAMGWFRQAPGKERELVAGISASGGSTSYADSVKGRFTISRDNAKNTVYLQMNSLKPEDTAVYYCARNYWLYSSSYDSWGQGTQVTVSS” the value was “high polyreactivity”; for “QVQLVESGGGLVQAGGSLRLSCDASGNTSSYYTMGWYRQAPGKERELGARISNRGTNTYYAESVKGRVTISRDNAKNTVYLQMNSLKPEDTAVYYCAALYWFYVYPFTEYDYWGQGTQVTVSS”, “low polyreactivity”; for “QVQLVESGGGLVQAGGSLRLSCDASGRHFKRYDMGWYRQAPGKERELVAAISWSGTSTHYADSVKGRLTISRDNAKNTVYLQMNSLKPEDTAVYYCAAYWFNTSYPGRYDYWGQGTQVTVSS”, “high polyreactivity”.
Take “QVQLVESGGGLVQAGGSLRLSCDASGRIFFNTMGWYRQAPGKERELVAAISSGGSTSYADSVKGRFTISRDNAKNTVYLQMNSLKPEDTAVYYCADLKLYIYDYWGQGTQVTVSS”: the “polyreactivity (PSR sort gate)” value is listed as “high polyreactivity”.
For “QVQLVESGGGLVQAGGSLRLSCDASGRIFGLYDMGWYRQAPGKERELVAAISRGGGSTYYADSVKGRFTISRDNAKNTVYLQMNSLKPEDTAVYYCATGLGYFSRLDYWGQGTQVTVSS” the value was “low polyreactivity”; for “QVQLVESGGGLVQAGGSLRLSCDASGRIFGYTMGWYIQAPGKERELVAAISKSGGSTYYADSVKGRFTISRDNAKNTVYLQMNSLKPEDTAVYYCNKPQRILYDYWGQGTQVTVSS”, “high polyreactivity”.
As for “QVQLVESGGGLVQAGGSLRLSCDASGRIFHYNSMGWYRQAPGKERELVAAISTGGSTNYADSVKGRFTISRDNAKNTVYLQMNSLKPEDTAVYYCAADHPVTYPTSKFDYWGQGTQVTVSS”, the “polyreactivity (PSR sort gate)” value is on record as “low polyreactivity”.
To “QVQLVESGGGLVQAGGSLRLSCDASGRIFNYYAMGWYRQAPGKERELVAAITWNGGNTYYADSVKGRFTISRDNAKNTVYLQMNSLKPEDTAVYYCNAYPWYPGDYWGQGTQVTVSS” belongs “high polyreactivity”; to “QVQLVESGGGLVQAGGSLRLSCDASGRIFYNYAMGWYRQEPGKERELVAAISSSGGRTYYADSVKGRFTISRDKAKNTVYLQMNSLKPEDTAVYYCAADFHDASRPYGSWGQGTQVTVSS”, “low polyreactivity”; to “QVQLVESGGGLVQAGGSLRLSCDASGRSFYPYSMGWYRQAPGKERELVAAIDWSDGSTYYADSVKGRFTISRDNAKNTFYLQMNSLKPEDTAVYYCSAEDYNYWSYDYWGQGTQVTVSS”, “low polyreactivity”.
To “QVQLVESGGGLVQAGGSLRLSCDASGRTFVVNAMGWYRQAPGKERELVAAITRRGGITYYADSVKGRFTISRDNAKNTVYLQMNSLKPEDTAVYYCAADRSYYPDTRTTYGYNYWGQGTQVTVSS” belongs “low polyreactivity”.
